# Measured values reported in US20080235824A1, “Use of Esterase Genes as Selectable Markers for Transforming Plant Cells” (priority 2006, published 2008).
# B1: porcine lipase: Commercial porcine pancreatic lipase, positive control of the lipase/esterase assays (protein, UniProt P00591 1-450, looked up)
# Pancreatic triacylglycerol …: SEVCFPRLGCFSDDAPWAGIVQRPLKILPWSPKDVDTRFLLYTNQNQNNYQELVADPSTITNSNFRMDRKTRFIIHGFIDKGEEDWLSNICKNLFKVESVNCICVDWKGGSRTGYTQASQNIRIVGAEVAYFVEVLKSSLGYSPSNVHVIGHSLGSHAAGEAGRRTNGTIERITGLDPAEPCFQGTPELVRLDPSDAKFVDVIHTDAAPIIPNLGFGMSQTVGHLDFFPNGGKQMPGCQKNILSQIVDIDGIWEGTRDFVACNHLRSYKYYADSILNPDGFAGFPCDSYNVFTANKCFPCPSEGCPQMGHYADRFPGKTNGVSQVFYLNTGDASNFARWRYKVSVTLSGKKVTGHILVSLFGNEGNSRQYEIYKGTLQPDNTHSDEFDSDVEVGDLQKVKFIWYNNNVINPTLPRVGASKITVERNDGKVYDFCSQETVREEVLLTLNPC
# Tests used:
# [1] = Rhodamine lipase assay with crude plant leaf extracts; assay type: biochemical; details: 0.025 ml droplets (crude leaf extract or 20 U porcine lipase); 30 C overnight
# Excerpt: For transient expression assays of bovine PGE, the plant transformation and expression vectors constructed in Example 12 were moved into A. tumefaciens strain GV2260 by either electroporation or bacterial conjugation as described (Kapila et al., 1997). GV2260 carrying pIPG745 or pIPG746 was used for transient expression in tobacco, pepper, tomato, citrus, geranium, and rice plants as described (Kapila et al. 1997; Duan et al., 1999; Wroblewski et al. 2005). Cultures of Agrobacterium harboring the constructs of interest were grown in minimal medium in the presence of acetosyringone to induce the Agrobacterium vir genes. The optical density of the cultures was maintained at 0.008 for pepper and tomato and at 0.25 for citrus, geranium and rice. Strain GV2260 was flooded into healthy, young, fully expanded leaves of vigorous plants into the apoplastic space through open stomata by injection using a tuberculin syringe without a needle, flooding entire leaves. […]
# Two lipase/esterase activity assays were used. […] Lower intensity fluorescence was also observed from the empty vector controls. In order to quantify the difference, 0.2 ml of the rhodamine olive oil suspension was mixed with 0.1 ml of plant extract and allowed to incubate at 30 C for 24 hrs. Fluorescence was measured using a Tecan Spectraluor Plus spectrofluorimeter (excitation=360 nm; emission=535 nm).
# [2] = Phenol red lipase/esterase assay with crude plant leaf extracts; assay type: biochemical
# Excerpt: In this Figure, the first tube on the left (labeled “Buffer”) contains phenol red buffer and Tween 20 (the dark red color appears dark in this black and white figure); the second tube to the right (“SL”) has 4 Units of Sigma porcine pancreatic lipase added (the bright yellow color appears light); the third tube to the right (labeled “731”) has a twenty microliter droplet of a crude tomato plant leaf extract from leaves inoculated 4 days earlier with GV2260 carrying “empty” (ie., no lipase gene) expression vector pIPG731 (the dark red color appears dark), and the fourth tube to the right (“768 WI”) has a twenty microliter droplet of crude tomato plant leaf extract from leaves inoculated four days earlier with GV2260 carrying cloned bovine pregastric esterase expressed in pIPG768 (the bright yellow color appears light). Tomato leaf tissue particles may be seen floating in the third and fourth tubes to the right. […] The photo was taken 16 hrs. after start of the assay.
# For transient expression assays of bovine PGE, the plant transformation and expression vectors constructed in Example 12 were moved into A. tumefaciens strain GV2260 by either electroporation or bacterial conjugation as described (Kapila et al., 1997). GV2260 carrying pIPG745 or pIPG746 was used for transient expression in tobacco, pepper, tomato, citrus, geranium, and rice plants as described (Kapila et al. 1997; Duan et al., 1999; Wroblewski et al. 2005). Cultures of Agrobacterium harboring the constructs of interest were grown in minimal medium in the presence of acetosyringone to induce the Agrobacterium vir genes. The optical density of the cultures was maintained at 0.008 for pepper and tomato and at 0.25 for citrus, geranium and rice. Strain GV2260 was flooded into healthy, young, fully expanded leaves of vigorous plants into the apoplastic space through open stomata by injection using a tuberculin syringe without a needle, flooding entire leaves. After 3-4 days, two grams of leaf tissue (fresh weight), was ground in liquid nitrogen to a fine powder, and 0.5 ml of ice cold phosphate buffered saline (PBS; 137 mM NaCl, 2.7 mM KCl, 10 mM potassium phosphate, pH 7.4) was added and mixed thoroughly at 4 C. The mixture was mixed on an orbital shaker at 4 C for 30 minutes, and plant debris was pelleted at 10,000×g for 15 minutes and discarded. The supernatants from these crude plant leaf extracts were directly used in lipase/esterase assays.
# The second activity assay was a phenol red lipase/esterase assay using tributyrin, olive oil or Tween 20 as substrates as described by Singh et al. (2006), except that liquid medium, rather than solidified agar medium, was used. Twenty microliter droplets of crude plant leaf extracts and the positive control were placed in the tributyrin/phenol red medium containing tributyrin, olive oil or Tween 20 and incubated at 30 C overnight. […] Transient expression of bovine PGE was confirmed in tobacco, pepper, tomato, citrus, geranium, and rice plants.
# For transient expression assays, the plant transformation and expression vectors constructed in Example 15 were moved into A. tumefaciens strain GV2260 by electroporation. GV2260 carrying pIPG823 was used for transient expression in tobacco and geranium plants exactly as described in Example 20. The supernatants from crude plant leaf extracts were directly used in phenol red lipase/esterase assays using tributyrin and olive oil as substrates exactly as described in Example 20.
molecule,measurement,setting,value
B1,Fluorescence on rhodamine olive oil agar plates,[1],Bright fluorescent spots
same,Phenol red indicator tube color (FIG. 2),"[2]; Tween 20 substrate, 16 hrs after start, tomato leaf extract or 4 Units lipase",bright yellow
same,Phenol red indicator color change,"[2]; substrates tributyrin and olive oil, extracts of tobacco and geranium leaves, nematode esterase construct",color change from red to bright yellow
same,Phenol red indicator color change,"[2]; substrates tributyrin, olive oil or Tween 20, twenty microliter droplets, 30 C overnight, bovine PGE constructs",color change from red to bright yellow
same,Substrates utilized in phenol red lipase/esterase assay,[2]; transiently plant-expressed enzyme or positive control,"utilized all three substrates: tributyrin, olive oil and Tween 20"
